The numbers were not newly measured in article PMC10361579, which cites them from elsewhere.

The term Kd denotes the equilibrium constant for the complex coming apart.

Data set [1] addresses classical cadherin (X-dimer) (UniProt P12830).
The target in data set [2] is classical cadherin (strand-swap dimer) (UniProt P12830).

Where “and” joins values, the source holds several entries; their conditions need not be identical. Equal values may be shown once.

As for “classical cadherin (X-dimer) (from UniProt P12830)”, the Kd in data set [1] was 916 µM.

In the case of “classical cadherin (strand-swap dimer) (from UniProt P12830)”, in data set [2], the Kd was 64 µM and 97 µM.
